Earlier results on one molecule are cited in patent US20160354395A1, “INFANT FORMULAS CONTAINING A 2-FUCOSYLATED OLIGOSACCHARIDE FOR TREATMENT OR PREVENTION OF INFLUENZA INFECTION” (NESTEC S.A., priority 2013, published 2016).

The test system of this data set is influenza virus. The note with it: mice.

B1: Lactoferrin: a protein of the transferrin family, present in milk; given in the diet at 25 g/kg (protein, UniProt P24627 20-708, looked up)
Lactotransferrin: APRKNVRWCTISQPEWFKCRRWQWRMKKLGAPSITCVRRAFALECIRAIAEKKADAVTLDGGMVFEAGRDPYKLRPVAAEIYGTKESPQTHYYAVAVVKKGSNFQLDQLQGRKSCHTGLGRSAGWIIPMGILRPYLSWTESLEPLQGAVAKFFSASCVPCIDRQAYPNLCQLCKGEGENQCACSSREPYFGYSGAFKCLQDGAGDVAFVKETTVFENLPEKADRDQYELLCLNNSRAPVDAFKECHLAQVPSHAVVARSVDGKEDLIWKLLSKAQEKFGKNKSRSFQLFGSPPGQRDLLFKDSALGFLRIPSKVDSALYLGSRYLTTLKNLRETAEEVKARYTRVVWCAVGPEEQKKCQQWSQQSGQNVTCATASTTDDCIVLVLKGEADALNLDGGYIYTAGKCGLVPVLAENRKSSKHSSLDCVLRPTEGYLAVAVVKKANEGLTWNSLKDKKSCHTAVDRTAGWNIPMGLIVNQTGSCAFDEFFSQSCAPGADPKSRLCALCAGDDQGLDKCVPNSKEKYYGYTGAFRCLAEDVGDVAFVKNDTVWENTNGESTADWAKNLNREDFRLLCLDGTRKPVTEAQSCHLAVAPNHAVVSRSDRAAHVKQVLLHQQALFGKNGKNCPDKFCLFKSETKNLLFNDNTECLAKLGGRPTYEEYLGTEYVTAIANLKKCSTSPLLEACAFLTR
Regarding B1, under “day 6”, the “number of infiltrated leukocytes recovered from bronchoalveolar lavage fluid” value is reported as “significantly lower”. Also, the lung consolidation score result (day 6 after infection, vs control mice given water) is on record as “significantly lower”.
